The values below come from EP1674575A2.

pKd: −log10 of the molar value. Bounds are passed on as bounds.

For assay [1], the target named is mouse HVEM:Fc (mouse HVEM Met1 to Ser205 fused to the Fc region of human IgG1) (mouse; human) (UniProt Q80WM9). The experiment in a line: ELISA, receptor:Fc capture, anti-FLAG detection. For orientation: ELISA stands for enzyme-linked immunosorbent assay.
For assay [2], the target named is mouse LTβR:Fc (amino acid residues 1 to Met221 of the extracellular domain of mouse LTβR) (mouse) (UniProt P50284). The experiment in a line: ELISA, receptor:Fc capture, anti-FLAG detection.
Assay [3] concerns the target HVEM:Fc (extracellular region of HVEM, 1 to K184, fused to the Fc region of human IgG1) (human) (UniProt Q92956). The experiment in a line: SPR (BIAcore), receptor:Fc amine-coupled, LIGHT as analyte 100-500 nM. (In general: Surface plasmon resonance follows binding to a sensor surface in real time, without labels.)
The next assay deals with human LTβR:Fc (human) (UniProt P36941). Described as above.
The target of assay [4] is LTβR (lymphotoxin β receptor) expressed by cells (human) (UniProt P36941). The experiment in a line: cell-based or functional assay.
Assay [5] addresses HVEM:Fc (extracellular region of HVEM, 1 to K184, fused to the Fc region of human IgG1) (human) (UniProt Q92956). The experiment in a line: SPR (BIAcore), receptor:Fc amine-coupled, LIGHT mutant as analyte 100-500 nM.
Assay [6] has the same target. The experiment in a line: SPR (BIAcore).

Sequence of human LTβR:Fc (human) (P36941 31-227 limits assumed): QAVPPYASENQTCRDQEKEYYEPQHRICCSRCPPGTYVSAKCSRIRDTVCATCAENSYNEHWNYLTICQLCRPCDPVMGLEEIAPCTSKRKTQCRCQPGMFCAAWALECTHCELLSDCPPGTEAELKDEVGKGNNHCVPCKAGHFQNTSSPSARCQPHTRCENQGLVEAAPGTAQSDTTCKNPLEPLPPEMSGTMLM
Sequence of HVEM:Fc (extracellular region of HVEM, 1 to K184, fused to the Fc region of human IgG1) (human) (Q92956 39-184 limits assumed): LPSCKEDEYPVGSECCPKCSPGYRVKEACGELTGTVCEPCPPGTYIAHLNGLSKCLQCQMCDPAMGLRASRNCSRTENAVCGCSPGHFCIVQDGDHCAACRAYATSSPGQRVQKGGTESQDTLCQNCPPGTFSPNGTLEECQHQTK
Sequence of mouse HVEM:Fc (mouse HVEM Met1 to Ser205 fused to the Fc region of human IgG1) (mouse; human) (Q80WM9 39-205): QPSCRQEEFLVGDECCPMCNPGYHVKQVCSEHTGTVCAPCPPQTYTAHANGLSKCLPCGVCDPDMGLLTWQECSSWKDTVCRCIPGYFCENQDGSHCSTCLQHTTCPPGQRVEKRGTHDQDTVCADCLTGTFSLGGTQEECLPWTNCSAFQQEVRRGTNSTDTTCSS
Sequence of mouse LTβR:Fc (amino acid residues 1 to Met221 of the extracellular domain of mouse LTβR) (mouse) (P50284 31-221 limits assumed): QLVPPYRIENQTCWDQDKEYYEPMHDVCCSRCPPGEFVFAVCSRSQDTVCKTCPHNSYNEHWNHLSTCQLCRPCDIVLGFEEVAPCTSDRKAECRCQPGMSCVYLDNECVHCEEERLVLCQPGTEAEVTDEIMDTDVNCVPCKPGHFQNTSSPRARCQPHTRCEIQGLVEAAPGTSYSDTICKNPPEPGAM

“LIGHTt66-FLAG (recombinant soluble homotrimeric human LIGHT lacking the N-terminal 66 amino acids, N-terminal FLAG epitope) (ligand)” had a fold lower affinity (against the human receptors) in assay [1] of 10 fold. The fold lower affinity (against the human receptors) in assay [2] came to 10 fold. In assay [3], this substance showed a pKd of 8.41, a koff of 4.8e-05 s⁻¹ and a kon of 12000 M⁻¹ s⁻¹. In the assay with human LTβR:Fc (human), this substance showed a pKd of 8.35, a koff of 0.00012 s⁻¹ and a kon of 27000 M⁻¹ s⁻¹. For the same substance, in assay [4], the concentration for complete inhibition of HCMV cytopathic effect came to 100 pM; the dose for 50% cytotoxicity to HT29 cells (MTT, with IFNγ) lay within 10 to 100 pM; the fold induction of ICAM expression by NHDF cells (flow cytometry, 5 nM) was found to be 4 fold; the growth inhibition of HT29 cells by LIGHT (0.25 nM), MTT after 72 h was 50%.
For the substance “LIGHTt66-FLAG mutant G119E (from UniProt O43557 67-240) (ligand)”, in assay [5], the pKd is 6.94, the dissociation rate constant (koff) was 0.002 s⁻¹ and the kon amounted to 18000 M⁻¹ s⁻¹. Further, the fold lower affinity than LIGHT t66 in assay [6] was determined as 30 fold. This substance showed a fold induction of ICAM expression by NHDF cells (flow cytometry, 20 nM) in assay [4] of less than 1.5 fold.

One may read the pKd as the Kd on a negative log10 scale, so that one unit is a factor of ten. For orientation: koff means the rate constant with which the complex falls apart. Higher therefore signals a short-lived complex. What is called kon is the rate constant with which the complex forms.
